Earlier results as cited in publication PMC6969543.

Biological target: Glu325 (UniProt position 325, TLHMFEVPFLL)
Test: IR

**Q.** For “Lactose permease (LacY), form used in earlier work (quoted values) (Escherichia coli)”, which pKa is on record?
**A.** Its pKa is 10.5 ± 0.1.
